The target of the assay is GST-tagged ID5 (human) (UniProt Q92793). As to the kind of experiment: BLI; GST-tagged ID5 immobilised on the biosensors; IQGAP1-F 0.1 to 19 uM, twelve concentrations; association and dissociation 60 s each; RT; double referenced against buffer and GST; steady state fitted 1:1. Background: BLI is a label-free optical method that tracks binding on a fibre tip over time.

Experimental findings from paper PMC7113243 are described below.

What is called Kd is the free concentration of one partner at which half of the binding sites on the other are occupied at equilibrium, for simple one-to-one binding. The low end stands for a tighter complex, the high end for a looser complex.

The substance “IQGAP1-F, His-tagged IQGAP1 construct (residues 286-592 of IQGAP1) (from UniProt P46940 286-592) (domain or fragment)” gave a Kd of 400 nM.
